According to US20050112126A1 (Genentech, published 2005):

The binders below were run against T1, VEGF (human, UniProt P15692-4 27-191, limits assumed) (assay: competitive phage-ELISA, relative to pY0192).
T1 construct: Biotinylated in the KDR-IgG ELISA, amine-coupled to the chip in BIAcore; also called biotinylated VEGF; vascular endothelial growth factor
Description: In such an assay, phages were first serially diluted to determine a fractional saturation titer which was then held constant and used to incubate with varying concentrations of VEGF (starting at 200 nM to 0 nM) in solution. The mixture was then transferred onto plate precoated with VEGF (2 μg/mL) and blocked with 5% instant milk, and allowed to equilibrate for 1 hour at room temperature. Thereafter, the phage solution was removed and the remaining bound phages were detected with a solution of rabbit anti-phage antibody mixed with goat anti-rabbit conjugate of horse radish peroxidase. After an hour incubation at room temperature, the plate was developed with a chromogenic substrate, o-phenylenediamine (Sigma). The reaction was stopped with addition of ½ volume of 2.5 M H₂SO₄. Optical density at 492 nm was measured on a spectrophotometric plate reader.
IC50's were determined in a competitive phage-ELISA assay.

T1 sequence (P15692 other isoform, or with tags, fused parts or gaps limits assumed): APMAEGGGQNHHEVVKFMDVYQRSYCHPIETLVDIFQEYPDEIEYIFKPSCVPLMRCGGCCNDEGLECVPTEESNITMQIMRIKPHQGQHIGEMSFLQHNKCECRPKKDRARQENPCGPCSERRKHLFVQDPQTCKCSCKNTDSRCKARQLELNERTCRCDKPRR

Binder | IC50 (mut)/IC50 (wt) [ratio]
pY0192 VH H101A (Fab, V domains shown, Ala-scan variant of pY0192; Fab on phage) VH: EVQLVESGGGLVQPGGSLRLSCAASGYTFTNYGINWVRQAPGKGLEWVGWINTYTGEPTYAADFKRRFTFSLDTSKSTAYLQMNSLRAEDTAVYYCAKYPAYYGSSHWYFDVWGQGTL VL: DIQLTQSPSSLSASVGDRVTITCRANEQLSNYLNWYQQKPGKAPKVLIYFTSSLHSGVPSRFSGSGSGTDFTLTISSLQPEDFATYYCQQYSTVPWTFGQGTKVEIKR | 4
pY0192 VH P58A (Fab, V domains shown, Ala-scan variant of pY0192; Fab on phage) VH: EVQLVESGGGLVQPGGSLRLSCAASGYTFTNYGINWVRQAPGKGLEWVGWINTYTGEATYAADFKRRFTFSLDTSKSTAYLQMNSLRAEDTAVYYCAKYPHYYGSSHWYFDVWGQGTL VL: DIQLTQSPSSLSASVGDRVTITCRANEQLSNYLNWYQQKPGKAPKVLIYFTSSLHSGVPSRFSGSGSGTDFTLTISSLQPEDFATYYCQQYSTVPWTFGQGTKVEIKR | 1
pY0192 VH T59A (Fab, V domains shown, Ala-scan variant of pY0192; Fab on phage) VH: EVQLVESGGGLVQPGGSLRLSCAASGYTFTNYGINWVRQAPGKGLEWVGWINTYTGEPAYAADFKRRFTFSLDTSKSTAYLQMNSLRAEDTAVYYCAKYPHYYGSSHWYFDVWGQGTL VL: DIQLTQSPSSLSASVGDRVTITCRANEQLSNYLNWYQQKPGKAPKVLIYFTSSLHSGVPSRFSGSGSGTDFTLTISSLQPEDFATYYCQQYSTVPWTFGQGTKVEIKR | 3
pY0192 VH T53A (Fab, V domains shown, Ala-scan variant of pY0192; Fab on phage) VH: EVQLVESGGGLVQPGGSLRLSCAASGYTFTNYGINWVRQAPGKGLEWVGWINAYTGEPTYAADFKRRFTFSLDTSKSTAYLQMNSLRAEDTAVYYCAKYPHYYGSSHWYFDVWGQGTL VL: DIQLTQSPSSLSASVGDRVTITCRANEQLSNYLNWYQQKPGKAPKVLIYFTSSLHSGVPSRFSGSGSGTDFTLTISSLQPEDFATYYCQQYSTVPWTFGQGTKVEIKR | 9
pY0192 VH N35A (Fab, V domains shown, Ala-scan variant of pY0192; Fab on phage) VH: EVQLVESGGGLVQPGGSLRLSCAASGYTFTNYGIAWVRQAPGKGLEWVGWINTYTGEPTYAADFKRRFTFSLDTSKSTAYLQMNSLRAEDTAVYYCAKYPHYYGSSHWYFDVWGQGTL VL: DIQLTQSPSSLSASVGDRVTITCRANEQLSNYLNWYQQKPGKAPKVLIYFTSSLHSGVPSRFSGSGSGTDFTLTISSLQPEDFATYYCQQYSTVPWTFGQGTKVEIKR | 66
pY0192 VH H107A (Fab, V domains shown, Ala-scan variant of pY0192; Fab on phage) VH: EVQLVESGGGLVQPGGSLRLSCAASGYTFTNYGINWVRQAPGKGLEWVGWINTYTGEPTYAADFKRRFTFSLDTSKSTAYLQMNSLRAEDTAVYYCAKYPHYYGSSAWYFDVWGQGTL VL: DIQLTQSPSSLSASVGDRVTITCRANEQLSNYLNWYQQKPGKAPKVLIYFTSSLHSGVPSRFSGSGSGTDFTLTISSLQPEDFATYYCQQYSTVPWTFGQGTKVEIKR | 2
pY0192 VH Y103A (Fab, V domains shown, Ala-scan variant of pY0192; Fab on phage) VH: EVQLVESGGGLVQPGGSLRLSCAASGYTFTNYGINWVRQAPGKGLEWVGWINTYTGEPTYAADFKRRFTFSLDTSKSTAYLQMNSLRAEDTAVYYCAKYPHYAGSSHWYFDVWGQGTL VL: DIQLTQSPSSLSASVGDRVTITCRANEQLSNYLNWYQQKPGKAPKVLIYFTSSLHSGVPSRFSGSGSGTDFTLTISSLQPEDFATYYCQQYSTVPWTFGQGTKVEIKR | 5
pY0192 VH T30A (Fab, V domains shown, Ala-scan variant of pY0192; Fab on phage) VH: EVQLVESGGGLVQPGGSLRLSCAASGYTFANYGINWVRQAPGKGLEWVGWINTYTGEPTYAADFKRRFTFSLDTSKSTAYLQMNSLRAEDTAVYYCAKYPHYYGSSHWYFDVWGQGTL VL: DIQLTQSPSSLSASVGDRVTITCRANEQLSNYLNWYQQKPGKAPKVLIYFTSSLHSGVPSRFSGSGSGTDFTLTISSLQPEDFATYYCQQYSTVPWTFGQGTKVEIKR | 1
pY0192 VH Y102A (Fab, V domains shown, Ala-scan variant of pY0192; Fab on phage) VH: EVQLVESGGGLVQPGGSLRLSCAASGYTFTNYGINWVRQAPGKGLEWVGWINTYTGEPTYAADFKRRFTFSLDTSKSTAYLQMNSLRAEDTAVYYCAKYPHAYGSSHWYFDVWGQGTL VL: DIQLTQSPSSLSASVGDRVTITCRANEQLSNYLNWYQQKPGKAPKVLIYFTSSLHSGVPSRFSGSGSGTDFTLTISSLQPEDFATYYCQQYSTVPWTFGQGTKVEIKR | 4
pY0192 VH Y27A (Fab, V domains shown, Ala-scan variant of pY0192; Fab on phage) VH: EVQLVESGGGLVQPGGSLRLSCAASGATFTNYGINWVRQAPGKGLEWVGWINTYTGEPTYAADFKRRFTFSLDTSKSTAYLQMNSLRAEDTAVYYCAKYPHYYGSSHWYFDVWGQGTL VL: DIQLTQSPSSLSASVGDRVTITCRANEQLSNYLNWYQQKPGKAPKVLIYFTSSLHSGVPSRFSGSGSGTDFTLTISSLQPEDFATYYCQQYSTVPWTFGQGTKVEIKR | 34
pY0192 VH Y54A (Fab, V domains shown, Ala-scan variant of pY0192; Fab on phage) VH: EVQLVESGGGLVQPGGSLRLSCAASGYTFTNYGINWVRQAPGKGLEWVGWINTATGEPTYAADFKRRFTFSLDTSKSTAYLQMNSLRAEDTAVYYCAKYPHYYGSSHWYFDVWGQGTL VL: DIQLTQSPSSLSASVGDRVTITCRANEQLSNYLNWYQQKPGKAPKVLIYFTSSLHSGVPSRFSGSGSGTDFTLTISSLQPEDFATYYCQQYSTVPWTFGQGTKVEIKR | 9
pY0192 VH T55A (Fab, V domains shown, Ala-scan variant of pY0192; Fab on phage) VH: EVQLVESGGGLVQPGGSLRLSCAASGYTFTNYGINWVRQAPGKGLEWVGWINTYAGEPTYAADFKRRFTFSLDTSKSTAYLQMNSLRAEDTAVYYCAKYPHYYGSSHWYFDVWGQGTL VL: DIQLTQSPSSLSASVGDRVTITCRANEQLSNYLNWYQQKPGKAPKVLIYFTSSLHSGVPSRFSGSGSGTDFTLTISSLQPEDFATYYCQQYSTVPWTFGQGTKVEIKR | 4
pY0192 VH I34A (Fab, V domains shown, Ala-scan variant of pY0192; Fab on phage) VH: EVQLVESGGGLVQPGGSLRLSCAASGYTFTNYGANWVRQAPGKGLEWVGWINTYTGEPTYAADFKRRFTFSLDTSKSTAYLQMNSLRAEDTAVYYCAKYPHYYGSSHWYFDVWGQGTL VL: DIQLTQSPSSLSASVGDRVTITCRANEQLSNYLNWYQQKPGKAPKVLIYFTSSLHSGVPSRFSGSGSGTDFTLTISSLQPEDFATYYCQQYSTVPWTFGQGTKVEIKR | 6
pY0192 VH T28A (Fab, V domains shown, Ala-scan variant of pY0192; Fab on phage) VH: EVQLVESGGGLVQPGGSLRLSCAASGYAFTNYGINWVRQAPGKGLEWVGWINTYTGEPTYAADFKRRFTFSLDTSKSTAYLQMNSLRAEDTAVYYCAKYPHYYGSSHWYFDVWGQGTL VL: DIQLTQSPSSLSASVGDRVTITCRANEQLSNYLNWYQQKPGKAPKVLIYFTSSLHSGVPSRFSGSGSGTDFTLTISSLQPEDFATYYCQQYSTVPWTFGQGTKVEIKR | 1
pY0192 VH Y60A (Fab, V domains shown, Ala-scan variant of pY0192; Fab on phage) VH: EVQLVESGGGLVQPGGSLRLSCAASGYTFTNYGINWVRQAPGKGLEWVGWINTYTGEPTAAADFKRRFTFSLDTSKSTAYLQMNSLRAEDTAVYYCAKYPHYYGSSHWYFDVWGQGTL VL: DIQLTQSPSSLSASVGDRVTITCRANEQLSNYLNWYQQKPGKAPKVLIYFTSSLHSGVPSRFSGSGSGTDFTLTISSLQPEDFATYYCQQYSTVPWTFGQGTKVEIKR | 2
pY0192 VH R66A (Fab, V domains shown, Ala-scan variant of pY0192; Fab on phage) VH: EVQLVESGGGLVQPGGSLRLSCAASGYTFTNYGINWVRQAPGKGLEWVGWINTYTGEPTYAADFKARFTFSLDTSKSTAYLQMNSLRAEDTAVYYCAKYPHYYGSSHWYFDVWGQGTL VL: DIQLTQSPSSLSASVGDRVTITCRANEQLSNYLNWYQQKPGKAPKVLIYFTSSLHSGVPSRFSGSGSGTDFTLTISSLQPEDFATYYCQQYSTVPWTFGQGTKVEIKR | 1
pY0192 VH I51A (Fab, V domains shown, Ala-scan variant of pY0192; Fab on phage) VH: EVQLVESGGGLVQPGGSLRLSCAASGYTFTNYGINWVRQAPGKGLEWVGWANTYTGEPTYAADFKRRFTFSLDTSKSTAYLQMNSLRAEDTAVYYCAKYPHYYGSSHWYFDVWGQGTL VL: DIQLTQSPSSLSASVGDRVTITCRANEQLSNYLNWYQQKPGKAPKVLIYFTSSLHSGVPSRFSGSGSGTDFTLTISSLQPEDFATYYCQQYSTVPWTFGQGTKVEIKR | 4
pY0192 VH P100A (Fab, V domains shown, Ala-scan variant of pY0192; Fab on phage; also called P1OOA) VH: EVQLVESGGGLVQPGGSLRLSCAASGYTFTNYGINWVRQAPGKGLEWVGWINTYTGEPTYAADFKRRFTFSLDTSKSTAYLQMNSLRAEDTAVYYCAKYAHYYGSSHWYFDVWGQGTL VL: DIQLTQSPSSLSASVGDRVTITCRANEQLSNYLNWYQQKPGKAPKVLIYFTSSLHSGVPSRFSGSGSGTDFTLTISSLQPEDFATYYCQQYSTVPWTFGQGTKVEIKR | 38
pY0192 VH K65A (Fab, V domains shown, Ala-scan variant of pY0192; Fab on phage) VH: EVQLVESGGGLVQPGGSLRLSCAASGYTFTNYGINWVRQAPGKGLEWVGWINTYTGEPTYAADFARRFTFSLDTSKSTAYLQMNSLRAEDTAVYYCAKYPHYYGSSHWYFDVWGQGTL VL: DIQLTQSPSSLSASVGDRVTITCRANEQLSNYLNWYQQKPGKAPKVLIYFTSSLHSGVPSRFSGSGSGTDFTLTISSLQPEDFATYYCQQYSTVPWTFGQGTKVEIKR | 1
pY0192 VH S105A (Fab, V domains shown, Ala-scan variant of pY0192; Fab on phage) VH: EVQLVESGGGLVQPGGSLRLSCAASGYTFTNYGINWVRQAPGKGLEWVGWINTYTGEPTYAADFKRRFTFSLDTSKSTAYLQMNSLRAEDTAVYYCAKYPHYYGASHWYFDVWGQGTL VL: DIQLTQSPSSLSASVGDRVTITCRANEQLSNYLNWYQQKPGKAPKVLIYFTSSLHSGVPSRFSGSGSGTDFTLTISSLQPEDFATYYCQQYSTVPWTFGQGTKVEIKR | 1
